Data reported in paper PMC12121997.

Tests used:
[1] = biological target: Nucleosome core particle: Cse4-containing histone octamer wrapped with chimeric centromeric DNA (CCEN) (S. cerevisiae | K. lactis) (UniProt P36012); assay: optical trap assay (bead-microtubule binding, then rupture force); 40 nM His6-NCPs held on anti-His6 polystyrene beads; 10 nM OA or 20 nM Mif2, 10 nM 2D-MIND, 10 nM Ndc80c and 5 nM Dam1c free in solution; bead brought by laser trap to the dynamic plus end of a surface-anchored microtubule; 1x BRB80, 1 mM GTP, 16 uM tubulin, room temperature; 1 pN preload, then ramping force until detachment; negative controls with OA or Mif2 omitted
[2] = biological target: Nucleosome core particle: Cse4-containing histone octamer wrapped with Widom 601 DNA (S. cerevisiae | K. lactis) (UniProt P36012); assay: as above

percent of NCP-coated beads that bound microtubules [1]: > 78%
percent of NCP-coated beads that bound microtubules [2]: > 78%
Substance: Mif2-linker-(27-392)MBP (from UniProt P35201 1-549) (natural protein)
